Data on five molecules can be found in paper PMC3025021, “Structural Basis of Enzymatic Activity for the Ferulic Acid Decarboxylase (FADase) from Enterobacter sp. Px6-4” (PLoS ONE, 2011).

For series [1], the system named is T1, COc1cc(/C=C/C(=O)O)ccc1O.
T1 construct: full-length Met1-Lys168, pET-28a(+) EcoRI/HindIII, Ni-NTA purified, E. coli BL21(DE3); 23 kDa subunit, homodimer (44 kDa)
Put plainly: HPLC decarboxylation assay. Type of series: biochemical, Enterobacter sp. Px6-4. As to conditions: 50 mM sodium phosphate pH 4.0, 28 °C (standard activity assay). The text has this:
(§1) HPLC decarboxylation assay on FADase (ferulic acid decarboxylase)

In series [2] the target is Ferulic acid decarboxylase (FADase) from Enterobacter sp. Px6-4 (Enterobacter sp. Px6-4). Put plainly: cross-linking; cross-linking of FADase with ethylene glycolbis (EGS), read on a gel.
For series [3] the target is unchanged. Put plainly: SEC; gel-filtration / size exclusion chromatography of recombinant FADase; data not shown. Background: SEC sorts molecules by how far they enter the pores of the column.
The target in series [4] is T2, FADase (ferulic acid decarboxylase) (Enterobacter sp. Px6-4, UniProt C6F3U5).
T2 construct: full-length Met1-Lys168, pET-28a(+) EcoRI/HindIII, Ni-NTA purified, E. coli BL21(DE3); 23 kDa subunit, homodimer (44 kDa)
T2 sequence (C6F3U5 1-168): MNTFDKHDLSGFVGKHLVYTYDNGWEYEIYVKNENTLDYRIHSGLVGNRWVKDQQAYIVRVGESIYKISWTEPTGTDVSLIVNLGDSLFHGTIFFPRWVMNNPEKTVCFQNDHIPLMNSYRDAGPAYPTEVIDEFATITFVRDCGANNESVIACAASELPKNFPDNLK
The experiment in a line: X-ray crystal structure, soaking, […] Å. Type of series: binding. As to conditions: crystals soaked overnight with 7 mM sodium ferulate; active site of monomer A.

Substrate in series [5]: COc1cc(/C=C/C(=O)O)ccc1O
Put plainly: HPLC decarboxylation assay. Type of series: biochemical, Enterobacter sp. Px6-4. As to conditions: 50 mM sodium phosphate pH 4.0, 28 °C (standard activity assay).
Excerpt: as §1

Consider “FADase (ferulic acid decarboxylase) (Enterobacter sp. Px6-4; W25A)”, for which, in series [1], the Km is 730 µM, the Vmax was 39.6 µM/min, the kcat is 0.02 s⁻¹ and the kcat/Km was found to be 20 M⁻¹ s⁻¹.
Consider “Ferulic acid decarboxylase (FADase) from Enterobacter sp. Px6-4 (enzyme)”, for which the stoichiometry N in series [2] and in series [3] was 2 throughout.
Consider `COc1cc(/C=C/C(=O)O)ccc1O` [sodium ferulate], for which the “X-ray crystal structure, soaking, 2.1 Å” value in series [4] was “The crystal structure of FADase in complex with the substrate analog sodium ferulate”.
For “FADase (ferulic acid decarboxylase) (Enterobacter sp. Px6-4; E134A)”, in series [1], the Km stood at 3520 µM, the maximum rate (Vmax) amounted to 285 µM/min, the kcat was 0.995 s⁻¹ and the kcat/Km was found to be 280 M⁻¹ s⁻¹.

B1: FADase (ferulic acid decarboxylase) (Enterobacter sp. Px6-4) (protein)
chain: MNTFDKHDLSGFVGKHLVYTYDNGWEYEIYVKNENTLDYRIHSGLVGNRWVKDQQAYIVRVGESIYKISWTEPTGTDVSLIVNLGDSLFHGTIFFPRWVMNNPEKTVCFQNDHIPLMNSYRDAGPAYPTEVIDEFATITFVRDCGANNESVIACAASELPKNFPDNLK
notes: full-length Met1-Lys168, pET-28a(+) EcoRI/HindIII, Ni-NTA purified, E. coli BL21(DE3); 23 kDa subunit, homodimer (44 kDa)
Regarding B1, in series [5], the Km came to 2360 µM, the maximal velocity (Vmax) stood at 606 µM/min, the kcat was 2.15 s⁻¹ and the kcat/Km turned out to be 910 M⁻¹ s⁻¹.

A word on the Km: it is the substrate concentration at which the rate is half of its maximum. Broadly, the Vmax is the top rate of the reaction or transport when substrate is in excess. Broadly, the kcat is the maximal rate divided by the concentration of active sites. The kcat/Km is the second-order rate constant that governs catalysis at low substrate concentration. For orientation: stoichiometry N means a count of units in the complex or per binding partner.
